Residue numbers refer to the chain shown, from its start.
B1: gGT25: glycosyltransferase protein with 475 amino acids, amino acid sequence SEQ ID NO.: 2, cloned from P. ginseng cDNA (protein)
chain: MKSELIFLPAPAIGHLVGMVEMAKLFISRHENLSVTVLIAKFYMDTGVDNYNKSLLTNPTPRLTIVNLPETDPQNYMLKPRHAIFPSVIETQKTHVRDIISGMTQSESTRVVGLLADLLFINIMDIANEFNVPTYVYSPAGAGHLGLAFHLQTLNDKKQDVTEFRNSDTELLVPSFANPVPAEVLPSMYVDKEGGYDYLFSLFRRCRESKAIIINTFEELEPYAINSLRMDSMIPPIYPVGPILNLNGDGQNSDEAAVILGWLDDQPPSSVVFLCFGSYGSFQENQVKEIAMGLERSGHRFLWSLRPSIPKGETKLQLKYSNLKEILPVGFLDRTSCVGKVIGWAPQVAVLGHESVGGFLSHCGWNSTLESVWCGVPVATWPMYGEQQLNAFEMVKELGIAVEIEVDYKKDYFNMKNDFIVRAEEIETKIKKLMMDENNSEIRKKVKEMKEKSRAAMSENGSSYNSLAKLFEEIM
modifications: Panax ginseng; gGT25
B2: gGT25-3: glycosyltransferase protein with 475 amino acids, SEQ ID NO.: 18 (protein)
chain: B1 chain with R110Q
modifications: Panax ginseng; gGT25-3
B3: gGT25-1: glycosyltransferase protein with 475 amino acids, SEQ ID NO.: 16 (protein)
chain: B1 chain with S281T, K324E, S355A, K410N, D411E, K416N, N438K, A455L
modifications: Panax ginseng; gGT25-1
B4: gGT29-5: glycosyltransferase protein with 446 amino acids, SEQ ID NO.: 57 (protein)
chain: MDNQKGRISIVMLPFLAHGHISPFFELAKHLSKRNCNIFLCSTPINLSSIKNRISDKDSSASIKLVELHLPSSPDLPPHYHTTNGLPSHLMVPLRNAFETAAPTFSEILKTLNPDLLIYDFNPSWAPEIASSHNIPAVCFIIGGAASFSMSLHSFKNPGEKYPFLDFDDNSNITPEPPSADNMKLLLDFMTCFERSCDIILIKSFRELEGKYIDLLSTLSDKTLVPVGPLVQDPMGHNEDPKTEQIINWLDKRAESTVVFVCFGSEYFLSNEELEEVAIGLEISMVNFIWAVRLIEGEKKGVLPEGFVQRVGDRGLVVEGWAPQARILGHSSTGGFVSHCGWSSIAESMKFGVPVIAMARHLDQPLNGKLAAEVGVGMEVVRDENGKYKREGIAEVIRKVVVEKSGEVIRRKARELSEKMKEIGEQLIDRAVEELVQICKKKKDEQ
modifications: Panax ginseng; gGT29-5
B5: gGT29-7: glycosyltransferase protein with 446 amino acids, SEQ ID NO.: 61 (protein)
chain: MDNQKGRISIALLPFLAHGHISPFFELAKQLAKRNCNVFLCSTPINLSSIKNRVSDKDSSASIKLVELHLPSSPDLPPHYHTTNGLPSHLMIPLRNAFDTAGPTFSEILKTLNPDLLIYDFNPSWAPEIASSHNIPAVCFIIGGAASSSMSLHSFKNPGEKYPFLDFDDNSNITPEPPSADNMKLLINFMTCFERSCDIILIKSFRELEGKYFDFFSTLSDKTLVPVGPLVQDPMGHNEDPKTEQFINWLDKRAESTVVFVCFGSECFLSNEELEEVAIGLEISMVNFIWAVRLIEGEKKGVLPEGFVQRVGDRGLVVEEWAPQARILGHSSTGGFVSHCGWNSITESMKFGVPVIAMARHFDQPLNGKLAAEVGVGMEVVRDENGKYKREGIAEVIRKVVVEKSGEVIRRKARELSEKMKEKGEQEIDRVVEELVQICKKKKDEQ
modifications: Panax ginseng; gGT29-7

Experiments:
Assay type in all cases: biochemical
[1] = Glycosyltransfering activities on ginsengenins and saponins: glycosylation site and specificity (summary); settings: for glycosylation site: C6 / glycosylation site: C20 / glycosylation site: The first glycosyl at C-3: Table 2, tetracyclic triterpenoid substrates; for extension of carbohydrate chain: crude enzyme: lysate supernatant of recombinant yeast, UDP-glucose, 35° C., 12 hrs, TLC
Experimental: More than 100 predicted cDNA sequences of glycosyltransferases were extracted from the published expression profile data of the Panax plant. 60 cDNAs with full length were cloned, expressed, and subjected to the analysis of glycosyltransfering reaction.
(§1) The lysate supernatant of the recombinant yeasts expressing the empty vector was used as control.
(§2) The reaction was conducted under 35° C. for 12 hrs, then stopped by adding 100 μL of butanol. The product were extracted, dried in vacuum, and dissolved in methanol.
(§3) The glycosyltransfering reactions of ginsenosides and ginsengenins were catalyzed by using the lysis supernatant of the recombinant yeasts expressing 3GT1, 3GT2, 3GT3 and 3GT4 as crude enzymes. The lysis supernatant of recombinant E. coli expressing empty vectors was used as control. The 100 μL reaction system is shown as Table 3. The reaction was conducted under 35° C. for 12 hrs, then stopped by adding 100 μL of butanol. The product were extracted, dried in vacuum, and dissolved in methanol.
(§4) The lysate supernatant of the recombinant yeast expressing empty vectors was used as control. The reaction was conducted under 35° C. for 12 hrs, and then stopped by adding 100 μL of butanol. The product were extracted, dried in vacuum, and dissolved in methanol.
(§5) The glycosyltransfering reactions of ginsenosides Rh2 and F2 were catalyzed by using the lysate supernatant of the recombinant yeasts expressing 3GT1, 3GT2, 3GT3 and 3GT4 as crude enzymes. The 100 μL reaction system is shown as Table 3. The reaction was conducted under 35° C. for 12 hrs, and then stopped by adding 100 μL of butanol. The product were extracted, dried in vacuum, and dissolved in methanol.

[2] = Glycosyltransfering reaction with crude enzyme, substrate Rh1; settings: crude enzyme: lysate supernatant of recombinant yeast; UDP-glucose, 35° C., 12 hrs; TLC
Experimental: as §1, §2
(§6) The reaction products were first detected by thin layer chromatography (TLC). […]

[3] = Glycosyltransfering reaction with crude enzyme, substrate Rg3; settings: crude enzyme: lysate supernatant of recombinant yeast; UDP-glucose, 35° C., 12 hrs; TLC
Experimental: as §1, §2, §6

[4] = Glycosyltransfering reaction with crude enzyme, substrate Rg2; settings: crude enzyme: lysate supernatant of recombinant yeast; UDP-glucose, 35° C., 12 hrs; TLC
Experimental: as §1, §2
(§7) The reaction products were first detected by thin layer chromatography (TLC).

[5] = Glycosyltransfering reaction with crude enzyme, substrate PPT; settings: for glycosylation of C6-OH of PPT (product Rg1 or Rh1) / glycosylation of C20-OH of PPT (product F1): crude enzyme: lysate supernatant of recombinant yeast, UDP-glucose, 35° C., 12 hrs, TLC
Experimental: as §1, §2, §7
(§8) The converted products of gGT25 were further identified by HPLC (FIG. 10 and FIG. 11). The retention time of peak 2 was identical to that of the CK standard sample; the retention time of peak 3 was identical to that of PPD. […] Peak 1, also present in the profile of the negative control, indicated its irrelevance to the conversion of PPD. 3 peaks were shown in FIG. 11, the retention time of peak 1 was identical to that of F1 standard sample and peak 3 was identical to that of PPT. […] Peak 2, also present in the profile of the negative control, indicated its irrelevance to the conversion of PPT.
(§9) According to the method as in Example 4, the cell lysate of recombinant yeasts expressing gGT13 and gGT30 were used to catalyze PPD and PPT.
as §3

[6] = Glycosyltransfering reaction with crude enzyme, substrate DM; settings: crude enzyme: lysate supernatant of recombinant yeast; UDP-glucose, 35° C., 12 hrs; TLC
Experimental: as §1, §2, §7, §3

[7] = Glycosyltransfering reaction with crude enzyme, substrate PPD; settings: for glycosylation of C20-OH of PPD (product CK): crude enzyme: lysate supernatant of recombinant yeast, UDP-glucose
Experimental: as §1, §2, §7, §8, §9
The cell lysis supernatant of the recombinant E. coli was used as crude enzyme to conduct the glycosyltransfering reaction, and the reaction condition was identical to that of Example 4.
The reaction was conducted under 35° C. for 12 hrs. 100 μL of butanol was added to stop the reaction and the products were extracted. Upon vacuum drying, the product was dissolved by methanol. TLC was first used to detect the reaction product.
as §3
The reaction was conducted under 35° C. for 12 hrs, and then stopped by adding 100 μL of butanol. The product were extracted, dried in vacuum, and dissolved in methanol. The reaction products were first detected by thin layer chromatography (TLC) (FIG. 35).

[8] = Glycosyltransfering reaction with crude enzyme, substrate Rf; settings: crude enzyme: lysate supernatant of recombinant yeast; UDP-glucose, 35° C., 12 hrs; TLC
Experimental: as §1, §2, §7

[9] = Glycosyltransfering reaction with crude enzyme, substrate Rh2; settings: crude enzyme: lysate supernatant of recombinant yeast; UDP-glucose, 35° C., 12 hrs; TLC
Experimental: as §1, §2, §6, §4, §5

[10] = as above; settings: crude enzymes of Example 21 (E. coli expression products); 35° C., 12 hrs; TLC
[11] = Glycosyltransfering reaction with crude enzyme, substrate F2; settings: crude enzymes of Example 21 (E. coli expression products); 35° C., 12 hrs; TLC
Experimental: as §9, §4, §5

[12] = crude enzyme from recombinant yeast, HPLC

Molecule | glycosylation site: C6 [1] | glycosylation site: C20 [1] | extension of carbohydrate chain [1] | glycosylation of C20-OH of Rh1 [2] | glycosylation of C20-OH of Rg3 (product Rd) [3] | glycosylation of C20-OH of Rg2 [4] | transformation of PPT into F1 [5, 12] | glycosylation of C6-OH of PPT (product Rg1 or Rh1) [5] | glycosylation of C20-OH of PPT (product F1) [5] | glycosylation of C20-OH of DM (product 20-O-β-(D-glucopyranosyl)-dammarendiol II) [6] | transformation of PPD into CK [7, 12] | transformation of PPD into CK ([7]; crude enzyme: cell lysis supernatant of recombinant E. coli, 35° C., 12 hrs, TLC) | glycosylation of C20-OH of PPD (product CK) ([7]; 35° C., 12 hrs, TLC) | glycosylation of C20-OH of Rf [8] | glycosylation of C20-OH of Rh2 (product F2) [9] | glycosylation site: The first glycosyl at C-3 [1] | extension of C3 glycosyl of Rh2 by one more glycosyl (product Rg3) [10] | extension of C3 glycosyl of F2 by one more glycosyl (product Rd) [11]
B1 | ✓ | ✓ | could not catalyze | could not be catalyzed | further glycosylated at C20-OH | could not be catalyzed | substantially transformed | C6-OH could be further glycosylated | glycosylated the C20-OH | could also glycosylate C20-OH | substantially transformed | could transform PPD into CK | glycosylated the C20-OH | could not be catalyzed | further glycosylated at C20-OH |  |  | 
B2 | ✓ | ✓ | could not catalyze | could not be catalyzed | further glycosylated at C20-OH | could not be catalyzed |  | C6-OH could be further glycosylated | glycosylated the C20-OH | could also glycosylate C20-OH |  |  | glycosylated the C20-OH | could not be catalyzed | further glycosylated at C20-OH |  |  | 
B3 | ✓ | ✓ | could not catalyze | could not be catalyzed | further glycosylated at C20-OH | could not be catalyzed |  | C6-OH could be further glycosylated | glycosylated the C20-OH | could also glycosylate C20-OH |  |  | glycosylated the C20-OH | could not be catalyzed | further glycosylated at C20-OH |  |  | 
B4 |  |  |  |  |  |  |  |  |  |  |  |  |  |  |  | ✓ | could not be catalyzed | could be extended by one more glycosyl
B5 |  |  |  |  |  |  |  |  |  |  |  |  |  |  |  | ✓ | could not be catalyzed | could be extended by one more glycosyl
